Data published in the DeepSol protein solubility set.

test: soluble on expression in E. coli; label from the status in PepcDB or PDB records

Sequence | soluble on expression in E. coli
MAHHHHHHMEGEEYDKILVLNFGSQYFHLIVKRLNNIKIFSETKDYGVELKDIKDMNIKGVILSGGPYSVTEAGSPHLKKEVFEYFLEKKIPIFGICYGMQEIAVQMNGEVKKSKTSEYGCTDVNILRNDNINNITYCRNFGDSSSAMDLYSNYKLMNETCCLFENIKSDITTVWMNHNDEVTKIPENFYLVSSSENCLICSIYNKEYNIYGVQYHPEVYESLDGELMFYNFAYNICKCKKQFDPIRYHELELKNIEKYKHDHYVIAAMSGGIDSTVAAAYTHKIFKERFFGIFIDNGLLRKNEAENVYTFLKSTFPDMNITKIDASENFLSNLQGVTDPEQKRKIIGKLFIEEFEKAVNNIDIDINKTFLLQGTLYPDIIESKCSKNLSDTIKTHHNVGGLPKNLKFKLFEPFKYLFKDDVKTLSRELNLPEEITNRHPFPGPGLAIRVIGEINKHKLNILREVDDIFINDLKQYGLYNQISQAFAVLLSSKSVGVRGDARSYDYVCVLRAVKTSSFMTANWYQIPYDILDKITTRILSEVKGVNRILYDVSSKPPATIEFE | soluble
MKKLTFEIRSPAHQQNAIHAVQQILPDPTKPIVVTIQERNRSLDQNRKLWACLGDVSRQVEWHGRWLDAESWKCVFTAALKQQDVVPNLAGNGFVVIGQSTSRMRVGEFAELLELIQAFGTERGVKWSDEARLALEWKARWGDRAA | soluble
MSLKHVAVYLRLSRGEDESELDNHKTRLLNRCELNNWSYELYKEIGSGSTIDDRPVMQKLLTDVEKNLYDAVLVVDLDRLSRGNGTDNDRILYSMKVSETLIVVESPYQVLDANNESDEEIILFKGFFARFEFKQINKRMREGKKLAQSRGQWVNSVTPYGYIVNKTTKKLTPSEEEAKVVIMIKDFFFEGKSTSDIAWELNKRKIKPRRATEWRSSSIANILQNEVYVGNIVYNKSVGNKKPSKSKTRVTTPYRRLPEEEWRRVYNAHQPLYSKEEFDRIKQYFECNVKSHKGSEVRTYALTGLCKTPDGKTMRVTQGKKGTDDDLYLFPKKNKHGDSSIYKGISYNVVYETLKEVILQVKDYLDSVLDQNENKDLVEELKEELMKKEDELETIQKAKNRIVQGFLIGLYDEQDSIELKVEKEKEIDEKEKEIEAIKMKIDNAKTVNNSIKKTKIERLLSDVQSAESEKEINRFYKTLIKEIIVDRTDENEAKIKVNFLEGHHHHHH | not soluble
MGSDKIHHHHHHMLSRTASELFWMARYLERAESYARVLDVTWKLSMIPRHSQQSRDLALPLNLSMTHELFQARHARFTMSNLLNFFALDGNNPCSIYSCVEMAWNNAHAVRGSLSAEVWESINATRIELRTLRQQGLGELGSDGFFEWVKERVHLFRGAVIGTLLRNDALSFIGIGTLIERAFATTQLLLIKDQQLTNDPDPVREYYRLDTLLNAVSAREAYNSLYRQPVSRETVMELLILRNDIPRSLRASIADLVGELEKIANDRSYQPLRLAHQLNVDLRFSTRDDLAQADLQTTLNGLLARINALSDSIRQTYLEAL | not soluble
MKFLTTNFLKCSVKACDTSNDNFPLQYDGSKCQLVQDESIEFNPEFLLNIVDRVDWPAVLTVAAELGNNALPPTKPSFPSSIQELTDDDMAILNDLHTLLLQTSIAEGEMKCRNCGHIYYIKNGIPNLLLPPHLV | not soluble
MQARQPTVAPFDTAKLDRLMEEAGIDVIAATSKHNTQYLMGGYKFIFFAAMDAIGHSRYLPMVIYEKGAPDHSAYVGNRMEGAEHQNNPFWTPAVHTATWGTQDAAGLAVEHLKKIGKASGRIGIEPAFLPSDARDLLASRLDGARFVDATHVLERLRAVKTADELAKLRRASELITDSMLATIAAARAGSTKLEIIEQLRREETNRGLHFEYCLLTLGASHNRAGSPQAWAEGEILSIDSGGNYHGYIGDLCRMGVLGEPDAELEDLLAEVERIQQAAFAKVRAGVLGSEMIVAAEAELKASPSAAFTDFFCHGMGLITHEAPFLMTNHPVAYEGIDADKPLEAGNVISVETTMLHPKRGFIKLEDTLAITDKGYEMFGDRGRGWNRGGVLEHHHHHH | not soluble
MGSDKIHHHHHHMKRSQINEIMAEAETFMRSFGFVLPPFAYWTPEEMRANASVAKAVIDGRLGWDITDYGEGKFDELGLFLFTLRNGRLSDLQAGGGMCYAEKLLISKQDQISPMHRHMLKAEDIINRGGATMAIELNGSAPDGSFDPDAGGVVMCDGIERRFSAGEVLLFAPGESVTLMPGDWHKFWGEGGDVLIGEVSTVNNDDTDNWFREPIGRFAAVDEDVAPTHLLVSDYGTWL | not soluble
MSTVIKGGTIVTADLTYKADVKVEGGRIVEIGPNLSGAETLDATGCYVMPGGIDPHTHLEMPFMGTYSSDDFESGTRAALAGGTTMVVDFALPSPGQSLLEALTMWDNKSTRANCDYSFHMAITWWGEQVFNEMETIVKDKGINTFKHFMAYKGALMVDDDEMFSSFQRCAALGALPLVHAENGDVVAQLQAKLLAEGNSGPEAHAYSRPAEVEGEAANRAIMIADMAGCPVYIVHTSCEQAHEAIRRARAKGMRVFGEPLIQHLTLDETEYFDKDWDHAARRVMSPPFRNKLHQDSLWAGLASGSLQVVATDHCAFTTEQKRFGVGDFTRIPNGTGGLEDRMPMLWTYGVATGRITMNEFVAVTSTNIAKILNIYPKKGAILVGADADLVVWDPKRSKTISAKTQQSAIDYNVFEGKTVTGLPRFTLTRGVVSIEEGTVKTQEGHGEFVRRDPFPAVSTALSTWKEVTAPRAVQRSGIPASGVHHHHHH | soluble
MVQQQQQSQQRMMELHERNDREKLARKTEKEREEERRKQEDDKILQLEKKLEEFQENARFIGDLASNFQTKYQDALNGRIYTLVRGLQDLDRMKGTFSDKKVPLDLLPYLDDGKNPCLYSKHCMEKTLEKNKAVNGKIEIYKKFRAHLMKEFSEEMPDLVMYYRSIREDLDLS | not soluble
MGSDKIHHHHHHMKILMLCREPRLYSCQRLKQACQDRNIQLDILDPNRMLIKLAVIDAQMQAQLYYQAGEIYDKCRAEPSLLAEYDAVLPRFGVSSTMMGCRVLDYFAAKKVVILNNSTAFRLARDKWSSLQVLAAQHIPIPTSSFAGALFSTAAHISQHRIPLVIKTCSGSQGVGVMLSESKVHSVSLLQTLQQAKVDNLLQDFVVEARGQDIRAFVIGDRVVAAIERNGLENDFRANIHQGGSASVIQLNTAEQQLAVLAAKTIGLDVAGVDLIRSNKGLLVLEVNACPGLDGIEKASKLDIAGLIIDYLLAMKK | not soluble
MGSDKIHHHHHHMNSIPHLILGDIITPTQAGQSLLIKKGYVLINGDSIIEVGEQAHFNKEISYTVSNYPDHLILPGLIDTHSHLSQYAICGAGDLPLMDWLNTLVFPAETAFSSNLQRCQRHAELYMHACLGSGTTTINTMVTSSRQATEIVCDVAARLGIRAFIGLVLMDRNAPDNLLVDCAQAFKDLTVLKDRYHGKNNIHITVSPRFAVTCSAAMLRQAGEFARANKLILHTHLDKDEGFDELIQSLFSTAHDYFDVFESTQCIADKTVFAHGTLLSLHEMKRMGDYAKQVGISHCPSSNFSFAMGMAPVSFFKGLGIEVGLGSDSGGGDSLSLFDEMRSASFTNKALWRLDKKTALIDAKTWLYHATLGGAKLLGLEKQIGSIEAGKKADLIILDDRNNYPLAELSSLSQELALDELQYRLARVIARSCENKLVAVYIDGKKVYQ | not soluble
GMFAGSIPMYIRVVSITAQSKLQFDMTVTYFENVWSPKVISLGAISAEFVQSNENSGMYIIHYPDKQTAISVFDKIKPEVDEVRTQNRIQITEGKRLFRVD | soluble
MAAQRRSLLQSEQQPSWTDDLPLCHLSGVGSASNRSYSADGKGTESHPPEDSWLKFRSENNCFLYGVFNGYDGNRVTNFVAQRLSAELLLGQLNAEHAEADVRRVLLQAFDVVERSFLESIDDALAEKASLQSQLPEGVPQHQLPPQYQKILERLKTLEREISGGAMAVVAVLLNNKLYVANVGTNRALLCKSTVDGLQVTQLNVDHTTENEDELFRLSQLGLDAGKIKQVGIICGQESTRRIGDYKVKYGYTDIDLLSAAKSKPIIAEPEIHGAQPLDGVTGFLVLMSEGLYKALEAAHGPGQANQEIAAMIDTEFAKQTSLDAVAQAVVDRVKRIHSDTFASGGERARFCPRHEDMTLLVRNFGYPLGEMSQPTPSPAPAAGGRVYPVSVPYSSAQSTSKTSVTLSLVMPSQGQMVNGAHSASTLDEATPTLTNQSPTLTLQSTNTHTQSSSSSSDGGLFRSRPAHSLPPGEDGRVEPYVDFAEFYRLWSVDHGEQSVVTAP | not soluble
MEKQLKAMSVSDKPAAPAAQKLGTAPLAAKKTRNEEWGTKVNIDTNIRKLTIKPNQPIYKYAVQVNYVFRKPDGTEATIEMSKSAKKGTEHDNDKTRCQNVYNEAIKRYDELKTGGPFFYDRQASLYTLTKLKNESISFVVTDKICKRQNFKEAQFVLKKVDQSFQSTSNDVIKTTNSCPANADKTLLEAMNIIVSGPAFENKNVITVGACVHYLIDPTGVDVAYKEYPEGQLYSGVGVSKSVKTLEGTDKKVPSLFMTTEMKTTLFHPDYAPLVELLQTFRGFSTTLKANSPAAQRIEKAFVGLDVVLNYGVHKGLGEDGVVMKIRRFHTSAKETCFEVEKSTREFTNVFDYFKKKYGITLKYPDLFTIEAKGKQGKIHFPAEVLLLCPNQTVTNDQMINNEQADMIKMSAAQPHIRKTTTDTIVRNVGLASNNIYGFIKVEDPVNLEGMVLPKPKIAFAGNRLADLANPKSRFPTDFNRAGQYYDAKELTKWELVFVQNEEVQGLAKQLADEMVNNGMKCSNPTMSFIIRGDLEPIFKKAKAAGTQLLFFVVKSRYNYHQQIKALEQKYDVLTQEIRAETAEKVFRQPQTRLNIINKTNMKLGGLNYAIGSEAFNKPNRLIVGFVTSQRVGGNPDYPISVGFAANMLKHHQKFAGGYVYVHRDRDVFGSIIKDTLLTIFKTCTEQRGRPDDILLYFNGVSEGQFSMINEEFSARVKEACMAFQKEGTPPFRPHITIIASSKAHNERLYKSDKGRIVNLEPGTVVDHTIVSNVYTEWYHASAVARQGTAKATKFTLIFTTKAGPQAEPLWHLEQLTNDLCYDHQIVFHPVGLPVPLYIADRYSQRGAMVLAANQGPIYNEGQIDLAATNSAYGYGEKKLFTTRFNA | not soluble
YDYSNPATLFTLSDIGVSAHRYHNRLDIFTQSLENGAAQQGIEVSLLNEKGQTLTQASSDAQGHVQLENDKNAALLLARKNGQTTLLDLKLPALDLAEFNIAGAPGYSKQFFMFGPRDLYRPGETVILNGLLRDADGKALPDQPIKLDVIKPDGQVLRSVVSQPENGLYHFTWPLDSNAATGMWHIRANTGDNQYRMWDFHVEDFMPERMALNLTGEKTPLTPKDEVKFSVVGYYLYGAPANGNTLQGQLFLRPLREAVSALPGFEFGDIAA | not soluble
MGSDKIHHHHHHMNSGIYSALTGNVAAMKRLDVLSNNLANVNTPGFKKDRMTFESMLQTVGAQPRPGGGTDAPVFAETTFFTDYSPGSVKQTGNPFDLAIDGDGFFAVTTADGQRAYTRQGNFRLDSTGRLVTADGAQVAGGVVIAGGKVDINGKGEVLVDGSQVGRLEVVDFPKPYALQKLGGGLFVPADPQATPNPVTGEKVMQGAIEESNVNTVQEMVQLIETNRYFEMCSKVVKAYDDLTGKAANEIGKI | not soluble
